Test results taken from paper PMC4191077, “Modeling hemoglobin and hemoglobin:haptoglobin complex clearance in a non-rodent species–pharmacokinetic and therapeutic implications” (Frontiers in Physiology, 2014).

Biological target: T1, Dog haptoglobin (purified) (dog, UniProt P19006 1-83; P19006 85-329)
T1 construct: haptoglobin alpha chain, dog; haptoglobin beta chain, dog; The supplier is named only for the fluorescent labelling; also called dog Hp; source: bought: Lee Biosolutions (St. Louis, Missouri USA); copies: 2 + 2
T1 sequence (looked up) 1: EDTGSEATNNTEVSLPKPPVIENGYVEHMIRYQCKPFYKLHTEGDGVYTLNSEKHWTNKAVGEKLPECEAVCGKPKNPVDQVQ
T1 sequence (looked up) 2: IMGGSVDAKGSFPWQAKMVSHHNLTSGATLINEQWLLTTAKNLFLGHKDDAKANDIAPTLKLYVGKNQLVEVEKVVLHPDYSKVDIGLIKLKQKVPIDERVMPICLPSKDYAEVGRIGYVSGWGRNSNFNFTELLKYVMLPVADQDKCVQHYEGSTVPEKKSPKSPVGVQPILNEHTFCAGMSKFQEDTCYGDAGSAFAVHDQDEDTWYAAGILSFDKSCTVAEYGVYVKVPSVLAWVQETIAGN
Experiment: SEC; purified standards of Hb and Hb:Hp complexes on a BioSep-SEC-S3000 column (600 x 7.5 mm), detection at 405 nm
Details: both partners purified

B1: Dog hemoglobin (natural protein)
chain 1: not shown
chain 2: not shown
notes: hemoglobin subunit alpha, dog; hemoglobin subunit beta, dog; also called dog Hb; purified dog Hb; source: prepared using a standardized method previously described (Palmer et al., 2009)
binding result: binds
